Experimental data from PMC11096383.

Molecular target: G12D (M3D-GPR183/ICL3 F93^1.57V), FLAG-epitope-tagged (human)
Sequence (chain, as listed by the source G12D): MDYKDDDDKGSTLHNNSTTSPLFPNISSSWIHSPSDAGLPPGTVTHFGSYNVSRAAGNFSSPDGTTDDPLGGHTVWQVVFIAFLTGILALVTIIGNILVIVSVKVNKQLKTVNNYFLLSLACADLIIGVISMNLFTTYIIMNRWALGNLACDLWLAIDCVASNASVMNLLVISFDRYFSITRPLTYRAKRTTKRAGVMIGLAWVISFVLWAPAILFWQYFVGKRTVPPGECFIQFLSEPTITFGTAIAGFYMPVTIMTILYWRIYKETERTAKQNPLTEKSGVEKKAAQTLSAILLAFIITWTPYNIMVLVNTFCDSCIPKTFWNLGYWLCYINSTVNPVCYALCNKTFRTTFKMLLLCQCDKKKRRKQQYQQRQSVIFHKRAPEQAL

B1: Gα_(q-12C) (protein)
chain: MTLESIMACCLSEEAKEARRINDEIERQLRRDKRDARRELKLLLLGTGESGKSTFIKQMRIIHGSGYSDEDKRGFTKLVYQNIFTAMQAMIRAMDTLKIPYKYEHNKAHAQLVREVDVEKVSAFENPYVDAIKSLWNDPGIQECYDRRREYQLSDSTKYYLNDLDRVADPAYLPTQQDVLRVRVPTTGIIEYPFDLQSVIFRMVDVGGQRSERRKWIHCFENVTSIMFLVALSEYDQVLVESDNENRMEESKALFRTIITYPWFQNSSVILFLNKKDLLEEKIMYSHLVDYFPEYDGPQRDAQAAREFILKMFVDLNPDSDKIIYSHFTCATDTENVRFVFHAVKDTILQENLKDIMLQ
  TGFα shedding assay (AP-TGFα release on CNO, concentration-response) in ∆Gq/∆G12 HEK293 cells; relative intrinsic activity (RAi) of Gα (q-12C) against Gα (q-13C): 4.6 fold
